Measured values published in patent US20160215061A1 (Merck Sharp & Dohme, published 2016).
Where a chain is given by its changes, count along the chain named. Names may count otherwise.

Assays:
[1] = target: T1, recombinant mouse FcγRIIB expressed in NS0 cells (mouse, UniProt P08101 40-207, limits assumed); experiment: SPR (Biacore); capture sample on chip, rmFcgRIIB (NSO) injected; reference Herceptin
T1 construct: Bought from R&D Systems; soluble analyte injected in SPR; also called rmFcgRIIB (NSO); CD32-B
T1 sequence (looked up): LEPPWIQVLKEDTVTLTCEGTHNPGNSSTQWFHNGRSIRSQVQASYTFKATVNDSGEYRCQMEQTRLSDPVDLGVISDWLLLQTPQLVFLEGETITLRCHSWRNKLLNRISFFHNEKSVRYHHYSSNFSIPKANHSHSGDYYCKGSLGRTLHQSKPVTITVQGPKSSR
Method: (§1) Purified IgGs were analyzed by SDS-PAGE for expression and assayed for binding to human or mouse FcγRIIB. […] The CMS chip (GE Healthcare, Wauwatusa, Wis.) was immobilized on all flow cells with mouse anti-human IgG (Fc specific) (obtained from GE Healthcare, Wauwatusa, Wis.) according to the Biacore Human Antibody Capture Kit to ˜7000 RU. Purified full-length IgG1 variants containing mutations in Fc region (described in Example 1) were captured on the chip through immobilized mouse anti-human IgG (obtained from GE Healthcare, Wauwatusa, Wis.) followed by injection of human or mouse FcγRIIB. Human FcγRIIB was expressed in Chinese Hamster Ovary cells (Merck, Whithouse Station, N.J.) and mouse FcγRIIB was expressed in NS0 murine myeloma (R&D Systems, Minneapolis, Minn.)). Each flowcell was regenerated between each analyte injection with 3M MgCl for 40 s at 10 μl/min. Data was analyzed with Biacore T100 Evaluation Software using the 1/1 binding model for KD values, where reported. Amino acid compositions of novel variants were identified by DNA sequencing. Clones were tabulated based on response units (RU's) registered following receptor binding.
(§2) Resulting clones were fermented in 1 L bioreactor vessels to produce each of the described variants. Culture supernatants were passed over protein A coated beads to capture secreted Fc fragments. Purified Fc fragments were eluted at pH 3.0 into tubes containing 1M Tris (pH 8.0). Purified Fc fragments were analyzed by surface plasmon resonance (SPR) on Biacore for binding to human and mouse FcγRIIB as described in Example 2.

[2] = target: T2, recombinant human FcγRIIB expressed in CHO cells (human, UniProt P31994 43-217, limits assumed); experiment: SPR (Biacore); capture sample on chip, rhFcgRIIB (CHO) injected; reference Herceptin
T2 construct: Soluble analyte injected in SPR; also called human FcgRIIB; rhFcgRIIB (CHO)
T2 sequence (looked up): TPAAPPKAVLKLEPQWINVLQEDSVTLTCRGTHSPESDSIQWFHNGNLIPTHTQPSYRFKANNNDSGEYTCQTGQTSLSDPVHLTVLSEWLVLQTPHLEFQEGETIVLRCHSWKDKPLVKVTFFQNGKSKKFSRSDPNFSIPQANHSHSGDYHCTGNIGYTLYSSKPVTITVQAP
Method: as §1, §2

[3] = target: T2, recombinant human FcγRIIB expressed in …; experiment: SPR (Biacore), 1/1 binding model; reference Herceptin

B1: 183-D4/F241A Fc (SEQ ID NO13) (other)
chain: AEPKSCDKTHTCPPCPAPELLGGPSVALFPPKPKDTLMISRTPEVTCVVVDVSHEDPEVKFNWYVDGVEVHNAKTKPREEQYNSTYRVVSVLTVLHQDWLNGEEYKCKVSNEALPAPIEKTISKTKGRPREPQVYTLPPSRDELTKNQVSLTCLVKGFYPSDIAVEWESNGQPENNYKTTPPVLDSDGSFFLYSKLTVDRSRWQQGNVFSCSVMHEALHNHYTQKSLSLSPGK
notes: Human IgG1 Fc fragment with F241A, K317E, K326E, A339T, Q342R, K414R (EU)
- Fold Increase in RU vs WT IgG1 [1]: 5 fold
- Fold Increase in RU vs WT IgG1 [2]: 4.7 fold

B2: K317E/K326E/K414R Fc (SEQ ID NO11) (other)
chain: B1 chain with A27F, T125A, R128Q
notes: Human IgG1 Fc fragment, made in glycoengineered Pichia pastoris
- Fold Increase in RU vs WT IgG1 [1]: 5.2 fold

B3: 183-D4/F241A/L328F Fc (SEQ ID NO12) (other)
chain: B1 chain with L114F
notes: Human IgG1 Fc fragment with F241A, K317E, K326E, L328F, A339T, Q342R, K414R (EU)
- Fold Increase in RU vs WT IgG1 [1]: 1.3 fold
- Fold Increase in RU vs WT IgG1 [2]: 1.2 fold

B4: F243A/V264A/S267E/L328F Fc (SEQ ID NO8) (other)
chain: AEPKSCDKTHTCPPCPAPELLGGPSVFLAPPKPKDTLMISRTPEVTCVVADVEHEDPEVKFNWYVDGVEVHNAKTKPREEQYNSTYRVVSVLTVLHQDWLNGKEYKCKVSNKAFPAPIEKTISKAKGQPREPQVYTLPPSREEMTKNQVSLTCLVKGFYPSDIAVEWESNGQPENNYKTTPPVLDSDGSFFLYSKLTVDKSRWQQGNVFSCSVMHEALHNHYTQKSLSLSPG
notes: Human IgG1 Fc fragment with F243A, V264A, S267E, L328F (EU)
- Fold Increase in RU vs WT IgG1 [1]: 2.4 fold
- Fold Improvement in KD vs WT IgG1 rhFcgRIIb [3]: 11 fold
- Fold Increase in RU vs WT IgG1 [2]: 7 fold
